US20230287145A1 (Hoffmann-La Roche, published 2023)

B1: TYRP1 TCB containing the parental CD3 binder CD3orig (bispecific antibody, human IgG1, kappa, L234A L235A)
heavy 1: not shown
heavy 2: QVQLVQSGAEVKKPGASVKVSCKASGFNIKDYFLHWVRQAPGQGLEWMGWINPDNGNTVYAQKFQGRVTMTADTSTSTVYMELSSLRSEDTAVYYCTRRDYTYEKAALDYWGQGTLVTVSSASTKGPSVFPLAPSSKSTSGGTAALGCLVEDYFPEPVTVSWNSGALTSGVHTFPAVLQSSGLYSLSSVVTVPSSSLGTQTYICNVNHKPSNTKVDEKVEPKSCDKTHTCPPCPAPEAAGGPSVFLFPPKPKDTLMISRTPEVTCVVVDVSHEDPEVKFNWYVDGVEVHNAKTKPREEQYNSTYRVVSVLTVLHQDWLNGKEYKCKVSNKALGAPIEKTISKAKGQPREPQVCTLPPSRDELTKNQVSLSCAVKGFYPSDIAVEWESNGQPENNYKTTPPVLDSDGSFFLVSKLTVDKSRWQQGNVFSCSVMHEALHNHYTQKSLSLSP
light 1: DIQMTQSPSSLSASVGDRVTITCRASGNIYNYLAWYQQKPGKVPKLLIYDAKTLADGVPSRFSGSGSGTDFTLTISSLQPEDVATYYCQHFWSLPFTFGQGTKLEIKRTVAAPSVFIFPPSDRKLKSGTASVVCLLNNFYPREAKVQWKVDNALQSGNSQESVTEQDSKDSTYSLSSTLTLSKADYEKHKVYACEVTHQGLSSPVTKSFNRGEC
light 2: EVQLLESGGGLVQPGGSLRLSCAASGFTFSTYAMNWVRQAPGKGLEWVSRIRSKYNNYATYYADSVKGRFTISRDDSKNTLYLQMNSLRAEDTAVYYCVRHGNFGNSYVSWFAYWGQGTLVTVSSASVAAPSVFIFPPSDEQLKSGTASVVCLLNNFYPREAKVQWKVDNALQSGNSQESVTEQDSKDSTYSLSSTLTLSKADYEKHKVYACEVTHQGLSSPVTKSFNRGEC
notes: also called CD3orig in TCB format
B2: TYRP1 TCB containing optimized anti-CD3 antibody clone P035.064 (bispecific antibody, human IgG1, kappa, L234A L235A)
heavy 1: not shown
heavy 2: QVQLVQSGAEVKKPGASVKVSCKASGFNIKDYFLHWVRQAPGQGLEWMGWINPDNGNTVYAQKFQGRVTMTADTSTSTVYMELSSLRSEDTAVYYCTRRDYTYEKAALDYWGQGTLVTVSSASTKGPSVFPLAPSSKSTSGGTAALGCLVEDYFPEPVTVSWNSGALTSGVHTFPAVLQSSGLYSLSSVVTVPSSSLGTQTYICNVNHKPSNTKVDEKVEPKSCDKTHTCPPCPAPEAAGGPSVFLFPPKPKDTLMISRTPEVTCVVVDVSHEDPEVKFNWYVDGVEVHNAKTKPREEQYNSTYRVVSVLTVLHQDWLNGKEYKCKVSNKALGAPIEKTISKAKGQPREPQVCTLPPSRDELTKNQVSLSCAVKGFYPSDIAVEWESNGQPENNYKTTPPVLDSDGSFFLVSKLTVDKSRWQQGNVFSCSVMHEALHNHYTQKSLSLSP
light 1: DIQMTQSPSSLSASVGDRVTITCRASGNIYNYLAWYQQKPGKVPKLLIYDAKTLADGVPSRFSGSGSGTDFTLTISSLQPEDVATYYCQHFWSLPFTFGQGTKLEIKRTVAAPSVFIFPPSDRKLKSGTASVVCLLNNFYPREAKVQWKVDNALQSGNSQESVTEQDSKDSTYSLSSTLTLSKADYEKHKVYACEVTHQGLSSPVTKSFNRGEC
light 2: EVQLLESGGGLVQPGGSLRLSCAASGFDFDNYAMNWVRQAPGKGLEWVSRIRSKHNGYATYYADSVKGRFTISRDDSKNTLYLQMNSLRAEDTAVYYCVRASNFPSSYVSYFGYWGQGTLVTVSSASVAAPSVFIFPPSDEQLKSGTASVVCLLNNFYPREAKVQWKVDNALQSGNSQESVTEQDSKDSTYSLSSTLTLSKADYEKHKVYACEVTHQGLSSPVTKSFNRGEC
notes: 2+1 IgG CrossFab, inverted, with charge modifications; knob-into-hole, P329G L234A L235A; also called CD3opt (P035.064)
B3: TYRP1 TCB containing optimized anti-CD3 antibody clone P021.045 (bispecific antibody, human IgG1, kappa, L234A L235A)
heavy 1: not shown
heavy 2: QVQLVQSGAEVKKPGASVKVSCKASGFNIKDYFLHWVRQAPGQGLEWMGWINPDNGNTVYAQKFQGRVTMTADTSTSTVYMELSSLRSEDTAVYYCTRRDYTYEKAALDYWGQGTLVTVSSASTKGPSVFPLAPSSKSTSGGTAALGCLVEDYFPEPVTVSWNSGALTSGVHTFPAVLQSSGLYSLSSVVTVPSSSLGTQTYICNVNHKPSNTKVDEKVEPKSCDKTHTCPPCPAPEAAGGPSVFLFPPKPKDTLMISRTPEVTCVVVDVSHEDPEVKFNWYVDGVEVHNAKTKPREEQYNSTYRVVSVLTVLHQDWLNGKEYKCKVSNKALGAPIEKTISKAKGQPREPQVCTLPPSRDELTKNQVSLSCAVKGFYPSDIAVEWESNGQPENNYKTTPPVLDSDGSFFLVSKLTVDKSRWQQGNVFSCSVMHEALHNHYTQKSLSLSP
light 1: DIQMTQSPSSLSASVGDRVTITCRASGNIYNYLAWYQQKPGKVPKLLIYDAKTLADGVPSRFSGSGSGTDFTLTISSLQPEDVATYYCQHFWSLPFTFGQGTKLEIKRTVAAPSVFIFPPSDRKLKSGTASVVCLLNNFYPREAKVQWKVDNALQSGNSQESVTEQDSKDSTYSLSSTLTLSKADYEKHKVYACEVTHQGLSSPVTKSFNRGEC
light 2: EVQLLESGGGLVQPGGSLRLSCAASGFTFSSYAMNWVRQAPGKGLEWVSRIRSKYNNYATYYADSVKGRFTISRDDSKNTLYLQMNSLRAEDTAVYYCVRASNFPSSYVSYFAYWGQGTLVTVSSASVAAPSVFIFPPSDEQLKSGTASVVCLLNNFYPREAKVQWKVDNALQSGNSQESVTEQDSKDSTYSLSSTLTLSKADYEKHKVYACEVTHQGLSSPVTKSFNRGEC
notes: 2+1 IgG CrossFab, inverted, with charge modifications; knob-into-hole, P329G L234A L235A; also called CD3opt (P021.045)
B4: TYRP1 TCB containing optimized anti-CD3 antibody clone P004.042 (bispecific antibody, human IgG1, kappa, L234A L235A)
heavy 1: not shown
heavy 2: QVQLVQSGAEVKKPGASVKVSCKASGFNIKDYFLHWVRQAPGQGLEWMGWINPDNGNTVYAQKFQGRVTMTADTSTSTVYMELSSLRSEDTAVYYCTRRDYTYEKAALDYWGQGTLVTVSSASTKGPSVFPLAPSSKSTSGGTAALGCLVEDYFPEPVTVSWNSGALTSGVHTFPAVLQSSGLYSLSSVVTVPSSSLGTQTYICNVNHKPSNTKVDEKVEPKSCDKTHTCPPCPAPEAAGGPSVFLFPPKPKDTLMISRTPEVTCVVVDVSHEDPEVKFNWYVDGVEVHNAKTKPREEQYNSTYRVVSVLTVLHQDWLNGKEYKCKVSNKALGAPIEKTISKAKGQPREPQVCTLPPSRDELTKNQVSLSCAVKGFYPSDIAVEWESNGQPENNYKTTPPVLDSDGSFFLVSKLTVDKSRWQQGNVFSCSVMHEALHNHYTQKSLSLSP
light 1: DIQMTQSPSSLSASVGDRVTITCRASGNIYNYLAWYQQKPGKVPKLLIYDAKTLADGVPSRFSGSGSGTDFTLTISSLQPEDVATYYCQHFWSLPFTFGQGTKLEIKRTVAAPSVFIFPPSDRKLKSGTASVVCLLNNFYPREAKVQWKVDNALQSGNSQESVTEQDSKDSTYSLSSTLTLSKADYEKHKVYACEVTHQGLSSPVTKSFNRGEC
light 2: EVQLLESGGGLVQPGGSLRLSCAASGFQFDNYAMNWVRQAPGKGLEWVSRIRTKYNEYATYYADSVKGRFTISRDDSKNTLYLQMNSLRAEDTAVYYCVRASNFPQSYVSYFGYWGQGTLVTVSSASVAAPSVFIFPPSDEQLKSGTASVVCLLNNFYPREAKVQWKVDNALQSGNSQESVTEQDSKDSTYSLSSTLTLSKADYEKHKVYACEVTHQGLSSPVTKSFNRGEC
notes: 2+1 IgG CrossFab, inverted, with charge modifications; knob-into-hole, P329G L234A L235A; also called CD3opt (P004.042)
B5: Humanized variant H3L3 of anti-idiotypic antibody 4.24.72 (IgG) (antibody, V domains shown)
VH: QVQLVQSGSELKKPGASVKVSCKASGYTVTDYSMNWVRQAPGQGLEWMGWINTETGEPRYTQGFKGRFVFSLDTSVSTAYLQISSLKAEDTAVYYCAREGDYDVFDYWGQGTLVTVSS
VL: DIVMTQSPDSLAVSLGERATINCRASKSVSTSSYSYMHWYQQKPGQPPKLLIKYVSYLESGVPDRFSGSGSGTDFTLTISSLQAEDVAVYYCQQSREFPYTFGQGTKLEIK
notes: Produced and purified as IgG; also called Mask humanization variant H3L3
B6: Humanized variant H7L5 of anti-idiotypic antibody 4.24.72 (IgG) (antibody, V domains shown)
VH: QVQLVQSGAEVKKPGASVKVSCKASGYTVTDYSMNWVRQAPGQGLEWMGWINTETGEPRYTDDFKGRVTMTRDTSISTAYMELSRLRSDDTAVYYCAREGDYDVFDYWGQGTLVTVSS
VL: DIVMTQSPDSLAVSLGERATINCRASKSVSTSSYSYMHWYQQKPGQPPKLLIYYVSYLESGVPDRFSGSGSGTDFTLTISSLQAEDVAVYYCQHSREFPYTFGQGTKLEIK
notes: Produced and purified as IgG; also called Mask humanization variant H7L5

Experiments:
[1] = target: T1, Human CD3ε stalk-Fc(knob)-Avi/CD3δ stalk-Fc(hole) (human); experiment: SPR, biotinylated human CD3ε/δ on SA chip, TCB at 2 µg/ml; response normalised to anti-huIgG capture and referenced to the unstressed sample; after 2 weeks at pH 6.0/40 °C
T1 construct: Heterodimeric Fc fusion; also called human CD3ε/δ; Human CD3 epsilon stalk-Fc(knob)-Avi
Procedure: (§1) In order to assess the effect of the deamidation site removal and its effect on the stability of the antibodies, the optimized anti-CD3 antibodies (in TCB format) were incubated for 14 days at 37° C., pH 7.4 and at 40° C., pH 6 and further analyzed by SPR for their binding capability to human CD3ε/δ. Samples stored at −80° C. pH 6 were used as reference. The reference samples and the samples stressed at 40° C. were in 20 mM His, 140 mM NaCl, pH 6.0, and the samples stressed at 37° C. in PBS, pH 7.4, all at a concentration of 1.0 mg/ml. After the stress period (14 days) samples in PBS were dialyzed back to 20 mM His, 140 mM NaCl, pH 6.0 for further analysis.
(§2) All SPR experiments were performed on a Biacore T200 instrument (GE Healthcare) at 25° C. with HBS-P+ (10 mM HEPES, 150 mM NaCl pH 7.4, 0.05% Surfactant P20) as running and dilution buffer. Biotinylated human CD3ε/δ (see Example 3, SEQ ID NOs 41 and 42) as well as biotinylated anti-huIgG (Capture Select, Thermo Scientific, #7103262100) were immobilized on a Series S Sensor Chip SA (GE Healthcare, #29104992), resulting in surface densities of at least 1000 resonance units (RU). Anti-CD3 antibodies with a concentration of 2 μg/ml were injected for 30 s at a flow rate of 5 μl/min, and dissociation was monitored for 120 s. The surface was regenerated by injecting 10 mM glycine pH 1.5 for 60 s. Bulk refractive index differences were corrected by subtracting blank injections and by subtracting the response obtained from a blank control flow cell. For evaluation, the binding response 5 seconds after injection end was taken. To normalize the binding signal, the CD3 binding was divided by the anti-huIgG response (the signal (RU) obtained upon capture of the CD3 antibody on the immobilized anti-huIgG antibody). The relative binding activity was calculated by referencing each temperature stressed sample to the corresponding, non-stressed sample.

[2] = target: T1, Human CD3ε stalk-Fc(knob)-Avi/CD3δ …; experiment: SPR, biotinylated human CD3ε/δ on SA chip, TCB at 2 µg/ml; response normalised to anti-huIgG capture and referenced to the unstressed sample; after 2 weeks at pH 7.4/37 °C
Procedure: as §1, §2

[3] = target: T2, biotinylated anti-human CD3 IgG (anti-CD3 P035.093) (biotinylated (site not stated)); experiment: SPR; biotinylated anti-CD3 P035.093 IgG on CAP chip, anti-idiotypic IgG at 1 µg/ml; response normalised to anti-human IgG surface and to the unstressed sample; after 14 d at 37 °C pH 7.4
T2 construct: IgG format of this reagent is not described further; immobilised on a CAP chip; also called CD3 IgG (P035.093)
T2 sequence (VH, as listed by the source, chain 1 of 2): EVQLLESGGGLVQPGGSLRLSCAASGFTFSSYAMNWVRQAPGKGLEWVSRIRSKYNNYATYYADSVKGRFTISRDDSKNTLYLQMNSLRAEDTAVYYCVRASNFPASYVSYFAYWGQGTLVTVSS
T2 sequence (VL, as listed by the source, chain 2 of 2): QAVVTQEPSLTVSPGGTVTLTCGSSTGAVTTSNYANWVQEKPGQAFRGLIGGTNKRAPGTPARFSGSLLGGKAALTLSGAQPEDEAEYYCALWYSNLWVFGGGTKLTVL
Procedure: Therefore, they were analyzed for thermal stability and remaining target binding after 14 d stress conditions (40° C. at pH6.0 or 37° C. at pH7.4).
(§3) Flow cell 1 was kept as mock surface. […] Dissociation was monitored for 30 s, the flow rate was set to 5 μl/min. The CAP chip was regenerated by injecting a mix of NaOH and Guadinium-hydrochloride for 120 s, provided in the biotin capture kit. Bulk refractive index differences were corrected by subtracting the response obtained from flow cell 1 (mock surface).

[4] = target: T2, biotinylated anti-human CD3 IgG …; experiment: SPR; biotinylated anti-CD3 P035.093 IgG on CAP chip, anti-idiotypic IgG at 1 µg/ml; response normalised to anti-human IgG surface and to the unstressed sample; after 14 d at 40 °C pH 6.0
Procedure: as §3

Binder | binding activity [%] [1] [%] | binding activity [%] [2] [%] | Rel. active concentration [%] [3] [%] | Rel. active concentration [%] [4] [%]
B1 | 95 | 65 |  | 
B2 | 97 | 96 |  | 
B3 | 99 | 95 |  | 
B4 | 98 | 98 |  | 
B5 |  |  | 87 | 97
B6 |  |  | 80 | 98
